Experimental data from patent US20260049134A1 (UNIVERSITY OF FLORIDA RESEARCH FOUNDATION, published 2026).

T1: SELL (L-Selectin)
T1 construct: coated protein in the ELISA; also called SELL-Fc-His (R&D Systems)
T1 chain: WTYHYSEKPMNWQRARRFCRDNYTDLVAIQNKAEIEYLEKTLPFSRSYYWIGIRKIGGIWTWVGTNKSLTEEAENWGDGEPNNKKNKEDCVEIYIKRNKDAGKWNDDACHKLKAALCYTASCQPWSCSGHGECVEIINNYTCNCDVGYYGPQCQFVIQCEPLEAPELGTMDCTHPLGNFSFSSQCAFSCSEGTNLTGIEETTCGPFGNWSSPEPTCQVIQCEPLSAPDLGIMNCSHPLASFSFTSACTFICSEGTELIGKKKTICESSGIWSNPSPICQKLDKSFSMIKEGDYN

T2: CADM1, endogenous in H929 multiple myeloma cells (human, UniProt Q9BY67 45-442)
T2 construct: Native protein on H929 cells (flow cytometry, siRNA knockdown) and in H929 lysates (IP/MS); RPMI-8226 cells were used for sorting with HW-97; also called IGSF4A
T2 sequence: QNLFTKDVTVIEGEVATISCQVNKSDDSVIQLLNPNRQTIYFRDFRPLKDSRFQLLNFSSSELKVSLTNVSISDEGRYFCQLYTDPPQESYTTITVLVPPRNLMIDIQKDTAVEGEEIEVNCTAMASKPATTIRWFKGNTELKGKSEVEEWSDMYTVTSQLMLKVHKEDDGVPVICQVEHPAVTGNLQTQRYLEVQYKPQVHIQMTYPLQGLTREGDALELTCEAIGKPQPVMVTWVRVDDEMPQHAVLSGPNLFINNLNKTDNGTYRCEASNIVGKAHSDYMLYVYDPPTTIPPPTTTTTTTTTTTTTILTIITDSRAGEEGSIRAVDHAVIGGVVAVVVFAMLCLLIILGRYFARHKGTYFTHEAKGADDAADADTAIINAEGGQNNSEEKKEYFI

B1: TH9-0022 (antibody, human IgG1, kappa, L234A L235A, V domains shown)
VH: QSLEESGGRLVTPGTPLTLTCTVSGFSLSSYAMNWVRQAPGKGLEWIGIINSYGSTYYASWAKGRFTISKTSTTVDLKITSPTTEDTATYFCARVTYDSYGYGYAPYGMDLWGPGTLVTVSS
VL: LVMTQTPSSTSNAVGGTVTIKCQASQSIGNVLAWYQQKPGQPPKLLIYAASTLASGVPSRVGGSRSGTEYTLTISGVQREDAATYYCLGSDSDSDIAFGGGTELEILR
notes: also called TH9-022; negative control
B2: HW-101 chimeric rabbit-human IgG1 LA/LA/PG (antibody, V domains shown)
VH: QEQLVESGGRLVTPGTPLTLTCKASGFSLGKYDMSWVRQAPGKGLEWIGTIYAGSGSTWYASWAKGRFTISKTSTTVDLKMTSLTTEDTATYFCARDFLGVNSIWGPGTLVTISS
VL: SFVLTQPASVQVNLGQTVSLTCTADTLSRSYASWYQQKPDQAPVLLIHRDTSRPSGVPDRFSGSNSGNTATLTISGAQAGDEADYYCATSDGSGSNFHFVFGGGTQLTVTG
notes: Fc-silenced (L234A/L235A/P329G) IgG1, lambda; Alexa Fluor 647-labeled in single-step flow cytometry; Cluster C-97

Experiments:
[1] = molecular target: T1, SELL (L-Selectin); assay: ELISA on coated SELL-Fc-His
Method: Recombinant purified ECDs (50-150 ng) of each putative target protein were coated, incubated with 150 ng of the indicated primary antibody, and binding was detected using a peroxidase-conjugated anti-human Fab secondary antibody. Heatmap represents averages of technical triplicates. (8B) Target validation via siRNA knockdown. H929 cells were transfected with siRNA pools targeting the putative antibody targets ICAM1, CADM1, and PTPRG. Cells were then subjected to cognate IgG binding analysis via flow cytometry. (NT, non-targeting siRNA).
ELISA ELISA was conducted as described previously. Briefly, 50-150 ng of antigen was coated overnight in half-area 96-well plates at 4° C., blocked with 3% BSA at 37° C. for 1 h, and 150 ng of chimeric rabbit/human IgG1 was added, incubating for 2 h at 37° C. […] After incubating at 37° C. for 15 min-1 h (depending on intensity of controls), data were acquired using a SpectraMax M5 plate reader (Molecular Devices).

[2] = molecular target: T3, PTPRG, endogenous in H929 multiple myeloma cells (human, UniProt P23470 20-1445); assay: flow cytometry, H929 + vehicle; None 2.74
T3 construct: Native protein on H929 cells (flow cytometry, siRNA knockdown) and in H929 lysates (IP/MS); also called phosphatase receptor type γ
T3 sequence (P23470 20-1445 limits assumed): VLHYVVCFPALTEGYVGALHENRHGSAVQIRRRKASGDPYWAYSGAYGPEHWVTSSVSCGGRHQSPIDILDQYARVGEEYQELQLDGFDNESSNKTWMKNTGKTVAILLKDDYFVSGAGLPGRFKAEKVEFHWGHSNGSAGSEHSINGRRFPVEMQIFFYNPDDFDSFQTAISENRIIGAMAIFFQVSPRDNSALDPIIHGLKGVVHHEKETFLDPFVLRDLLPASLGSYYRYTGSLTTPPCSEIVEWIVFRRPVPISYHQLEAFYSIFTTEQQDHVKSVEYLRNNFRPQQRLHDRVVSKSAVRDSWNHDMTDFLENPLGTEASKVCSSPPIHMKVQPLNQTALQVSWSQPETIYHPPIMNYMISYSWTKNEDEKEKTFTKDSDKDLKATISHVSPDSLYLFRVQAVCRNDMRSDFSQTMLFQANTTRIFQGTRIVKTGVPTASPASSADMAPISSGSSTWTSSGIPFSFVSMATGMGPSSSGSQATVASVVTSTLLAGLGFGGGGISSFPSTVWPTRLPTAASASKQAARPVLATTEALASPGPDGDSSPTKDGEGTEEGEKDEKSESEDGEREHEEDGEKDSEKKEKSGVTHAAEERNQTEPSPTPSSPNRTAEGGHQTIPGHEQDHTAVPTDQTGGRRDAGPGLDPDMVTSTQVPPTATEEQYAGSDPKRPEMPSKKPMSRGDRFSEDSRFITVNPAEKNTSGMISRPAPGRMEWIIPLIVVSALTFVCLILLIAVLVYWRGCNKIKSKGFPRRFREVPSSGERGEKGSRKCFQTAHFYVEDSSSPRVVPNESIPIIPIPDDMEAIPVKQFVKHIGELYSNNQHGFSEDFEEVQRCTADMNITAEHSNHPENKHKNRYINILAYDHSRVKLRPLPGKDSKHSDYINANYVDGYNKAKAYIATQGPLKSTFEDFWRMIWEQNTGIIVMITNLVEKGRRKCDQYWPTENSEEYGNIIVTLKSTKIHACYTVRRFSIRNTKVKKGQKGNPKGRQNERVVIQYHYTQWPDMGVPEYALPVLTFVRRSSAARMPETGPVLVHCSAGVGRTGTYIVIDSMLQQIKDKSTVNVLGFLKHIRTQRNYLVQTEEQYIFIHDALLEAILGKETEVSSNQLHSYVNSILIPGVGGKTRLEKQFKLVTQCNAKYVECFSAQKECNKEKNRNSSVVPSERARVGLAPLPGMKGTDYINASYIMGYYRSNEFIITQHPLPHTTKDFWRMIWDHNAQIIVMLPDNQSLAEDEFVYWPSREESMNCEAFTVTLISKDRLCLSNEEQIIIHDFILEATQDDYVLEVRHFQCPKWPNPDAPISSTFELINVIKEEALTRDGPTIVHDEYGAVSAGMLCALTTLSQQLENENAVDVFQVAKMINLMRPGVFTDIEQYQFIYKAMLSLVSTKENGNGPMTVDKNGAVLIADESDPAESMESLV

[3] = molecular target: T2, CADM1, endogenous in H929 multiple …; assay: flow cytometry, H929 + NT Green siRNA; None 1.35

Binder	binding result [1]	Cells stained (%) [2]	Cells stained (%) [3]
B1	no binding (tested: 150 ng IgG1 per well)	2.62%	1.86%
B2	no binding (tested: 150 ng IgG1 per well)		94.3%
